Results: US20040002593A1 (BURNHAM INSTITUTE, published 2004)

T1: ASC-CARD in pGilda (human, UniProt Q9ULZ3 107-195)
T1 construct: domain: CARD; Yeast two-hybrid construct; also called CARD domain of ASC
T1 sequence (looked up): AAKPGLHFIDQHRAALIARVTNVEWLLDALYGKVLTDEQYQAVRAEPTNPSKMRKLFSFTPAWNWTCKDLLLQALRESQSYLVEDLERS

B1: endogenous IKKα (protein)
chain: MERPPGLRPGAGGPWEMRERLGTGGFGNVCLYQHRELDLKIAIKSCRLELSTKNRERWCHEIQIMKKLNHANVVKACDVPEELNILIHDVPLLAMEYCSGGDLRKLLNKPENCCGLKESQILSLLSDIGSGIRYLHENKIIHRDLKPENIVLQDVGGKIIHKIIDLGYAKDVDQGSLCTSFVGTLQYLAPELFENKPYTATVDYWSFGTMVFECIAGYRPFLHHLQPFTWHEKIKKKDPKCIFACEEMSGEVRFSSHLPQPNSLCSLVVEPMENWLQLMLNWDPQQRGGPVDLTLKQPRCFVLMDHILNLKIVHILNMTSAKIISFLLPPDESLHSLQSRIERETGINTGSQELLSETGISLDPRKPASQCVLDGVRGCDSYMVYLFDKSKTVYEGPFASRSLSDCVNYIVQDSKIQLPIIQLRKVWAEAVHYVSGLKEDYSRLFQGQRAAMLSLLRYNANLTKMKNTLISASQQLKAKLEFFHKSIQLDLERYSEQMTYGISSEKMLKAWKEMEEKAIHYAEVGVIGYLEDQIMSLHAEIMELQKSPYGRRQGDLMESLEQRAIDLYKQLKHRPSDHSYSDSTEMVKIIVHTVQSQDRVLKELFGHLSKLLGCKQKIIDLLPKVEVALSNIKEADNTVMFMQGKRQKEIWHLLKIACTQSSARSLVGSSLEGAVTPQTSAWLPPTSAEHDHSLSCVVTPQDGETSAQMIEENLNCLGHLSTIIHEANEEQGNSMMNLDWSWLTE
B2: ASC-CARD in pJG 4-5 (other, human, UniProt Q9ULZ3 107-195, looked up, not shown: large carriers)
chain: T1 sequence (looked up)
notes: domain: CARD; Yeast two-hybrid construct; also called CARD domain of ASC

Columns and labels:
[1] = biological target: Myc-ASC-PAAD
[2] = biological target: T2, ASC in pGilda (human, UniProt Q9ULZ3 1-195); assay: yeast two-hybrid, Leu read-out
T2 construct: Yeast two-hybrid construct
Experimental: (§1) Colonies were plated on both LEU+ and LEU− media and also used for a β-Gal-assay.

[3] = biological target: T1, ASC-CARD in pGilda; assay: yeast two-hybrid, β-Gal read-out
Experimental: as §1

Binder	TNFα-induced activation of endogenous IKKα (in vitro kinase assay, phosphorylation of GST-IKBα substrate by immunoprecipitated IKKα) [1]	binding result [2]	binding result [3]
B1	ASC-PAAD potently suppressed TNFα-induced activation of endogenous IKKα in these cells		
B2		binds	binds
